Experimental data as given in paper PMC9127186, “Molecular Basis Underlying Hepatobiliary and Renal Excretion of Phenolic Acids of Salvia miltiorrhiza Roots (Danshen)” (Frontiers in Pharmacology, 2022).

What was measured:
[1] = biological target: T1, rat Bcrp (Rattus norvegicus, UniProt Q80W57); assay: Vesicular transport assay, inside-out membrane vesicles expressing rat Bcrp; conditions: positive substrate 20 μM, 10 min; rat Bcrp
T1 sequence (Q80W57 1-657): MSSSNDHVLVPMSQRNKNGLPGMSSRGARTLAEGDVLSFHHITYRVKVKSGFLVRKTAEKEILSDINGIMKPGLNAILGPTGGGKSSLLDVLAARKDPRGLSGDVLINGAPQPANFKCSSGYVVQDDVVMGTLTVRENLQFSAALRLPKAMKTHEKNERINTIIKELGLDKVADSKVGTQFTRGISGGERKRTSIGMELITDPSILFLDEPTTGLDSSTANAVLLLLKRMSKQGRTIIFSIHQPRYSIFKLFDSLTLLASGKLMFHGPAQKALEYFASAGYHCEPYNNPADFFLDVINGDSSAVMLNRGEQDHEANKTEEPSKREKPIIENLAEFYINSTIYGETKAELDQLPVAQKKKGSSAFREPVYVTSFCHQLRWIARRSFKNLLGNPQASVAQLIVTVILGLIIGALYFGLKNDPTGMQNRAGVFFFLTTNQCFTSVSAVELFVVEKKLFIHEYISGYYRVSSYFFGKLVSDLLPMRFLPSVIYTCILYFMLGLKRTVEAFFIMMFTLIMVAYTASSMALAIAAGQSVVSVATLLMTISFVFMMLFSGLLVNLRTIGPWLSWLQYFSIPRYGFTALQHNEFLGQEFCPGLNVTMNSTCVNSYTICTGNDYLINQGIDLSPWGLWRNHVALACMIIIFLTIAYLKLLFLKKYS
Method: (§1) Inside-out membrane vesicles (5 mg protein/mL), prepared from insect cells expressing human multidrug resistance-associated protein (MRP) 2, MRP3, MRP4, breast cancer resistance protein (BCRP), bile salt export pump (BSEP), and multidrug resistance protein (MDR) one and rat Mrp2, Mrp4, Bcrp, and Bsep, and vesicles (5 mg protein/mL; prepared from the insect cells expressing no ABC transporter; serving as negative control) were obtained from Genomembrane (Kanazawa, Japan).
(§2) The test Danshen compounds at 100 µM final concentration were separately incubated with the membrane vesicles for 10 min. Buffer C (50 mM MOPS-tris, 70 mM KCl, 7.5 mM MgCl2, pH 7.0) was used for preincubation and incubation, while buffer D (40 mM MOPS-tris, 70 mM KCl, pH 7.0) was used for vesicle washing. The transport rate (pmol/mg protein/min) of the test Danshen compound was calculated using Equation (2): Transport=(CV×VV)/T/WV (2) where C V, V V, T, and W V represent concentration of the compound in vesicular lysates supernatant (μM), volume of the lysates (μL), incubation time (10 min), and amount of vesicle protein amount per well (0.05 mg), respectively. Differential transport of the test Danshen compound between ATP-containing vesicles and AMP-containing vesicles was defined as net transport ratio (TransportATP/TransportAMP ratio). […] All the incubation samples were analyzed by liquid chromatography/mass spectrometry.

[2] = biological target: T2, human BCRP (Homo sapiens, UniProt Q9UNQ0); assay: Vesicular transport assay, inside-out membrane vesicles expressing human BCRP; conditions: positive substrate 20 μM, 10 min; human BCRP
T2 sequence (Q9UNQ0 1-655): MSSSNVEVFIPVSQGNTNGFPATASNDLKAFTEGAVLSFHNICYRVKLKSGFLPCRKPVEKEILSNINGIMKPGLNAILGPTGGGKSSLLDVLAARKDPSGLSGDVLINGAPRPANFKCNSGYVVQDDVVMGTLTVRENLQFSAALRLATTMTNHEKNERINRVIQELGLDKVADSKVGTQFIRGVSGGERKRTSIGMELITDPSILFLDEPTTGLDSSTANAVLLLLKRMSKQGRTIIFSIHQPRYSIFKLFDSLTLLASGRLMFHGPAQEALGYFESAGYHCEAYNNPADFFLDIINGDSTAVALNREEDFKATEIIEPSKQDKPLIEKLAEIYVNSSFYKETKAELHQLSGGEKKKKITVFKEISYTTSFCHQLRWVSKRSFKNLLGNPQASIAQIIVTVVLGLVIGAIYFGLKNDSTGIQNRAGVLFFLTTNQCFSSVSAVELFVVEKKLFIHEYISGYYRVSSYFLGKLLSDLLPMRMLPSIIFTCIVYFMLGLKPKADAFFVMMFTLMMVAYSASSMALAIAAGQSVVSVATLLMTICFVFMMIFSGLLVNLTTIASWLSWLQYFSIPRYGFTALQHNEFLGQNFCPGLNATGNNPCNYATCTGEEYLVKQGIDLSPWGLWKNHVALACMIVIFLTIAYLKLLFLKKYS
Method: as §1, §2

[3] = substrate: O=C(O)Cc1c(/C=C/C(=O)OC(Cc2ccc(O)c(O)c2)C(=O)O)ccc(O)c1O; assay: cells, lysate or membranes named; conditions: 5 min incubation, concentrations in Table 1, 37.0 °C
[4] = substrate: O=C(/C=C/c1ccc(O)c(O)c1)O[C@H](Cc1ccc(O)c(O)c1)C(=O)O; assay: cells, lysate or membranes named; conditions: 5 min incubation, concentrations in Table 1, 37.0 °C
[5] = substrate: O=C(O)c1ccc(O)c(O)c1; assay: cells, lysate or membranes named; conditions: 5 min incubation, concentrations in Table 1, 37.0 °C
[6] = other: human hepatic sinusoidal uptake OAT2 (also renal basolateral)
[7] = other: rat hepatic sinusoidal uptake Oat2 (also renal apical)
[8] = other: rat renal basolateral uptake Oat1
[9] = other: rat renal basolateral uptake Oat3
[10] = other: human renal basolateral uptake OAT1

`CN(Cc1cnc2nc(N)nc(N)c2n1)c1ccc(C(=O)N[C@@H](CCC(=O)O)C(=O)O)cc1` [MTX, methotrexate, reference compound] was tested. Which “TransportATP/TransportAMP ratio, positive substrate” value [1] did it give?
The value was 20.5 ± 3.2 (MTX).

What about the “TransportATP/TransportAMP ratio, positive substrate” value [2] of the same molecule?
Its value is 4.45 ± 0.67 (MTX).

B1: human OAT2 (Homo sapiens) (protein)
chain: MGFEELLEQVGGFGPFQLRNVALLALPRVLLPLHFLLPIFLAAVPAHRCALPGAPANFSHQDVWLEAHLPREPDGTLSSCLRFAYPQALPNTTLGEERQSRGELEDEPATVPCSQGWEYDHSEFSSTIATEWDLVCEQKGLNRAASTFFFAGVLVGAVAFGYLSDRFGRRRLLLVAYVSTLVLGLASAASVSYVMFAITRTLTGSALAGFTIIVMPLELEWLDVEHRTVAGVLSSTFWTGGVMLLALVGYLIRDWRWLLLAVTLPCAPGILSLWWVPESARWLLTQGHVKEAHRYLLHCARLNGRPVCEDSFSQEAVSKVAAGERVVRRPSYLDLFRTPRLRHISLCCVVVWFGVNFSYYGLSLDVSGLGLNVYQTQLLFGAVELPSKLLVYLSVRYAGRRLTQAGTLLGTALAFGTRLLVSSDMKSWSTVLAVMGKAFSEAAFTTAYLFTSELYPTVLRQTGMGLTALVGRLGGSLAPLAALLDGVWLSLPKLTYGGIALLAAGTALLLPETRQAQLPETIQDVERKSAPTSLQEEEMPMKQVQN
Which results are given for B1?
Vmax [3, 6]: 0.00269 ± 0.000114 µmol/min/mg; Vmax/Km [3, 6]: 24.3 µL/min/mg; Vmax [4, 6]: 0.000927 µmol/min/mg; Vmax/Km [4, 6]: 19.1 µL/min/mg; Vmax [5, 6]: 0.00382 ± 0.000177 µmol/min/mg

B2: rat Oat2 (Rattus norvegicus) (protein)
chain: MGFEDLLDKVGGFGPFQLRNLVLMALPRMLLPMHFLLPVFMAAVPAHHCALPGAPANLSHQDLWLEAHLPRETDGSFSSCLRFAYPQTVPNVTLGTEVSNSGEPEGEPLTVPCSQGWEYDRSEFSSTIATEWDLVCQQRGLNKITSTCFFIGVLVGAVVYGYLSDRFGRRRLLLVAYVSSLVLGLMSAASINYIMFVVTRTLTGSALAGFTIIVLPLELEWLDVEHRTVAGVISTVFWSGGVLLLALVGYLIRSWRWLLLAATLPCVPGIISIWWVPESARWLLTQGRVEEAKKYLLSCAKLNGRPVGEGSLSQEALNNVVTMERALQRPSYLDLFRTSQLRHISLCCMMVWFGVNFSYYGLTLDVSGLGLNVYQTQLLFGAVELPSKIMVYFLVRRLGRRLTEAGMLLGAALTFGTSLLVSLETKSWITALVVVGKAFSEAAFTTAYLFTSELYPTVLRQTGLGLTALMGRLGASLAPLAALLDGVWLLLPKVAYGGIALVAACTALLLPETKKAQLPETIQDVERKSTQEEDV
With B2 as the molecule, how does the Vmax [3, 7] read?
Its Vmax is 0.000164 µmol/min/mg.

What about the Vmax/Km [3, 7] of the same molecule?
The Vmax/Km was 2.73 µL/min/mg.

And the Vmax [4, 7]?
Its Vmax is 0.00062 µmol/min/mg.

What about the Vmax/Km [4, 7] of the same molecule?
The Vmax/Km was 5.2 µL/min/mg.

And the Vmax [5, 7]?
The Vmax was 0.00118 ± 1.9e-05 µmol/min/mg.

B3: rat Oat1 (Rattus norvegicus) (protein)
chain: MAFNDLLKQVGGVGRFQLIQVTMVVAPLLLMASHNTLQNFTAAIPPHHCRPPANANLSKDGGLEAWLPLDKQGQPESCLRFTSPQWGPPFYNGTEANGTRVTEPCIDGWVYDNSTFPSTIVTEWNLVCSHRAFRQLAQSLYMVGVLLGAMVFGYLADRLGRRKVLILNYLQTAVSGTCAAYAPNYTVYCVFRLLSGMSLASIAINCMTLNVEWMPIHTRAYVGTLIGYVYSLGQFLLAGIAYAVPHWRHLQLVVSVPFFIAFIYSWFFIESARWYSSSGRLDLTLRALQRVARINGKQEEGAKLSIEVLRTSLQKELTLSKGQASAMELLRCPTLRHLFLCLSMLWFATSFAYYGLVMDLQGFGVSMYLIQVIFGAVDLPAKFVCFLVINSMGRRPAQMASLLLAGICILVNGIIPKSHTIIRTSLAVLGKGCLASSFNCIFLYTGELYPTVIRQTGLGMGSTMARVGSIVSPLVSMTAEFYPSMPLFIFGAVPVVASAVTALLPETLGQPLPDTVQDLKSRSRGKQNQQQQEQQKQMMPLQASTQEKNGL
How did the Vmax [3, 8] turn out when B3 was run?
Its Vmax is 0.000115 µmol/min/mg.

What about the Vmax/Km [3, 8] of the same molecule?
Its Vmax/Km is 4.72 µL/min/mg.

What about the Vmax [4, 8] of the same molecule?
Its Vmax is 0.000206 µmol/min/mg.

And the Vmax/Km [4, 8]?
The Vmax/Km was 3.47 µL/min/mg.

And the Vmax [5, 8]?
Its Vmax is 0.000446 µmol/min/mg.

B4: rat Oat3 (Rattus norvegicus) (protein)
chain: MTFSEILDRVGSMGPFQYLHVTLLALPVLGIANHNLLQIFTATTPVHHCRPPPNASIGPWVLPLDPNGKPEKCLRFVHLPNASLPNDTQRATEPCLDGWIYNSTRDTIVIEWDLVCSSNKLKEMAQSIFMAGILVGGPVIGELSDRFGRKPILTWSYLMLAASGSGAAFSPSLPVYMIFRFLCGCSISGISLSTVILNVEWVPTSMRAISSTSIGYCYTIGQFILSGLAYAIPQWRWLQLTSSAPFFIFSLLSWWVPESIRWLVLSGKYSKALKTLQRVATFNGKKEEGKKLTIEELKFNLQKDITSAKVKYGLSDLFRVSILRRVTFCLSLAWFSTGFAYYSLAMGVEEFGVNIYILQIIFGGVDIPAKFITILSLSYLGRRITQSFLLLLAGGAILALIFVPSEMQLLRTALAVFGKGCLSGSFSCLFLYTSELYPTVLRQTGMGISNVWARVGSMIAPLVKITGELQPFIPNVIFGTTALLGGSAAFFLLETLNRPLPETIEDIQNWHKQVQKTKQESEAEKASQIIPLKTGG
How did the Vmax [4, 9] turn out when B4 was run?
The Vmax was 3.58e-06 µmol/min/mg.

And the Vmax/Km [4, 9]?
Its Vmax/Km is 0.15 µL/min/mg.

And the Vmax [5, 9]?
Its Vmax is 6.68e-05 µmol/min/mg.

B5: human OAT1 (Homo sapiens) (protein)
chain: MAFNDLLQQVGGVGRFQQIQVTLVVLPLLLMASHNTLQNFTAAIPTHHCRPPADANLSKNGGLEVWLPRDRQGQPESCLRFTSPQWGLPFLNGTEANGTGATEPCTDGWIYDNSTFPSTIVTEWDLVCSHRALRQLAQSLYMVGVLLGAMVFGYLADRLGRRKVLILNYLQTAVSGTCAAFAPNFPIYCAFRLLSGMALAGISLNCMTLNVEWMPIHTRACVGTLIGYVYSLGQFLLAGVAYAVPHWRHLQLLVSAPFFAFFIYSWFFIESARWHSSSGRLDLTLRALQRVARINGKREEGAKLSMEVLRASLQKELTMGKGQASAMELLRCPTLRHLFLCLSMLWFATSFAYYGLVMDLQGFGVSIYLIQVIFGAVDLPAKLVGFLVINSLGRRPAQMAALLLAGICILLNGVIPQDQSIVRTSLAVLGKGCLAASFNCIFLYTGELYPTMIRQTGMGMGSTMARVGSIVSPLVSMTAELYPSMPLFIYGAVPVAASAVTVLLPETLGQPLPDTVQDLESRWAPTQKEAGIYPRKGKQTRQQQEHQKYMVPLQASAQEKNGL
For B5, which Vmax [3, 10] is on record?
The Vmax was 3.76e-05 µmol/min/mg.

And the Vmax/Km [3, 10]?
The Vmax/Km was 2.08 µL/min/mg.

What about the Vmax [4, 10] of the same molecule?
The Vmax was 0.000181 µmol/min/mg.

What about the Vmax/Km [4, 10] of the same molecule?
The Vmax/Km was 2.55 µL/min/mg.

And the Vmax [5, 10]?
The Vmax was 0.000242 µmol/min/mg.
